Measured values as given in patent publication US20140162960.

How the values were obtained:
[1] = molecular target: T1, myc-tagged IQGAP1 WW domain expressed from lentivirus (pLEX-mycWW)
T1 chain: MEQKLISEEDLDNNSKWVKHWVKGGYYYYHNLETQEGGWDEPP

[2] = molecular target: myc-tagged mutant IQGAP1 WW domain expressed from lentivirus (pLEX-mycYY)

B1: ERK1 (extracellular signal-regulated kinase 1), endogenous (protein)
chain: AAAAAQGGGGGEPRRTEGVGPGVPGEVEMVKGQPFDVGPRYTQLQYIGEGAYGMVSSAYDHVRKTRVAIKKISPFEHQTYCQRTLREIQILLRFRHENVIGIRDILRASTLEAMRDVYIVQDLMETDLYKLLKSQQLSNDHICYFLYQILRGLKYIHSANVLHRDLKPSNLLINTTCDLKICDFGLARIADPEHDHTGFLTEYVATRWYRAPEIMLNSKGYTKSIDIWSVGCILAEMLSNRPIFPGKHYLDQLNHILGILGSPSQEDLNCIINMKARNYLQSLPSKTKVAWAKLFPKSDSKALDLLDRMLTFNPNKRITVEEALAHPYLEQYYDPTDEPVAEEPFTFAMELDDLPKERLKELIFQETARFQPGVLEAP
Q: Which “pELK1 levels in IP-kinase assay (pERK immunoprecipitate, ELK-1 substrate)” value [1] does the source give for B1 here?
A: revealed diminished downstream pELK1 levels as compared to control treated cells

Q: What about the “phosphorylated ERK levels (tissue stain and immunoblot)” value [1] of the same protein?
A: WW domain expressing tissue also showed diminished phosphorylated ERK without an effect on total ERK levels

Q: What about the “phosphorylated ERK levels (immunoblot)” value [2] of the same protein?
A: Primary normal human keratinocytes infected with this WW domain mutant had normal levels of phosphorylated ERK
